# Results reported in patent publication US20140193449A1.
# Molecular target: CD8+ splenocytes from LV-huCEA-vaccinated huCEA transgenic mice (T cell receptors of huCEA-specific CTLs)
# Assay: flow cytometry, tetramer and anti-CD8 double staining of pooled splenocytes
substance,measurement,value
"PE-conjugated huCEA/H-2Db tetramer specific for EAQNTTYL (SEQ ID NO: 23) immunogenic peptide (iTag, Beckman Coulter) (from UniProt P01899 25-309) (peptide-MHC)",percent of CD8+ splenocytes stained by the tetramer,2.1%
